Experiment [1] addresses T1, human DLL4 (purchased from Acro, DL4-H5227) (human, UniProt Q9NR61 27-524).
T1 construct: Bought; also called hDLL4
Kind of experiment: ELISA on plate-coated human DLL4 protein (1 µg/ml), HRP goat anti-human secondary, OD 450 nm [right panel]. The procedure:
(§1) The chimeric antibodies obtained in Example 6 were evaluated for their binding abilities to human DLL1 (purchased from Acro, DL1-H52H8) and DLL4 (purchased from Acro, DL4-H5227) proteins using the ELISA method. The ELISA detection method involved diluting DLL1 and DLL4 proteins with PBS to a final concentration of 1 μg/ml and coating them onto 384-well ELISA plates (purchased from Corning, 3700) at 4° C. overnight. The next day, the supernatant in the plate wells was discarded, and the wells were blocked with 80 μl of 3% milk (dissolved in PBS) for 2 hours, followed by washing three times with 80 μl of PBST (0.1% Tween20). […] After washing with 80 μl of PBST (0.1% Tween20) for five times, 25 μl of HRP-labeled goat anti-human secondary antibody (Jackson, 1:10000) was added to each well and incubated at room temperature for 1 hour, discard the supernatant, and the wells were then washed seven times with 80 μl of PBST (0.1% Tween20). After adding 25 μl of TMB chromogen solution for 10 minutes, the reaction was terminated with 2M HCl, and the absorbance value at 450 nm was measured with a Microplate reader (purchased from Biotek, Elx808). […] To assess the cross-reactivity of the antibodies with mouse and monkey DLL3, mouse DLL3-expressing plasmid pCMV3-mDLL3 (purchased from Beijing Yiqiao, MG58052-UT) and monkey DLL3-expressing plasmid pCMV3-rheDLL3 (purchased from Beijing Yiqiao, CG90919-UT) were used to construct overexpressing cell lines. The construction of overexpressing cells was as described in Examples 2-3. The binding abilities of the chimeric antibodies to these cells were determined by flow cytometry to assess the cross-reactivity of the antibodies with different species.

Experiment [2] has as its target T2, human DLL3, His tag (acrobiosystems, DL3-H52H4) (human, UniProt Q9NYJ7 27-492).
T2 construct: Bought; also called human DLL3 protein; free DLL3; not shown: His tag
T2 sequence (looked up): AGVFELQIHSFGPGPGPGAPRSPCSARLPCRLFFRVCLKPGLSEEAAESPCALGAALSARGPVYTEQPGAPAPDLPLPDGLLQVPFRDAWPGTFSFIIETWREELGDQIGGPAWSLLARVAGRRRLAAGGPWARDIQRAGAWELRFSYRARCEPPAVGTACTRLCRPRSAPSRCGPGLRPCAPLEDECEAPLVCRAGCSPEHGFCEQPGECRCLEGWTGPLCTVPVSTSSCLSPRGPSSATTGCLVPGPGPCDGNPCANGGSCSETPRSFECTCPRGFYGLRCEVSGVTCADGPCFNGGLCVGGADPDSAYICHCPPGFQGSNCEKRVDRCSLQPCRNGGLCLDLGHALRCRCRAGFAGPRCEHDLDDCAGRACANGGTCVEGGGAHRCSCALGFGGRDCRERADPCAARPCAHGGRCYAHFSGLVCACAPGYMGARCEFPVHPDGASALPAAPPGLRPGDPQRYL
Kind of experiment: BLI (Octet 96e), antibody on sensor, DLL3-His 100-3.13 nM in solution. On the procedure: To assess the affinity of antibodies for human DLL3 protein, this study employed the BLI method to detect the binding kinetics curves of immobilized antibodies with free DLL3. The method was conducted according to the instrument's user manual (supplier: Fortebio, equipment model: Octet 96e). Briefly, AMC sensors were equilibrated for 60 s with Loading Buffer/Sample dilution buffer (1×PBS, pH7.4, with 0.1% BSA and 0.02% Tween-20) to obtain Baseline 1. The antibodies to be detected were diluted with Loading Buffer to a concentration of 10 ug/ml and bound to the equilibrated sensors, after which the sensors were re-equilibrated with Loading Buffer to obtain Baseline 2. The antibody-loaded sensors were then placed in human DLL3, His tag (supplier: acrobiosystems, catalog number: DL3-H52H4) diluted with Sample Dilution Buffer to concentrations ranging from 100 to 3.13 nM for 90 s to obtain the antibody-protein binding curve. Then, the sensors combined with antigen were placed in the Sample Dilution Buffer again and dissociated for 180 s, and the dissociation curve was obtained. The k-on and k-off values of the antibody-protein binding were calculated based on the binding and dissociation curves, and the KD values were calculated, with the results shown in Table 4.

In experiment [3] the target is T1, human DLL4 (purchased from Acro, …). In words: ELISA, plate-coated protein 1 µg/ml. The procedure:
as §1

Here are results for 10 molecules from patent publication US20250114467A1 (SHANGHAI FUDAN ZHANGJIANG BIO PHARMACEUTICAL, published 2025).

T1 sequence (Q9NR61 27-524 limits assumed): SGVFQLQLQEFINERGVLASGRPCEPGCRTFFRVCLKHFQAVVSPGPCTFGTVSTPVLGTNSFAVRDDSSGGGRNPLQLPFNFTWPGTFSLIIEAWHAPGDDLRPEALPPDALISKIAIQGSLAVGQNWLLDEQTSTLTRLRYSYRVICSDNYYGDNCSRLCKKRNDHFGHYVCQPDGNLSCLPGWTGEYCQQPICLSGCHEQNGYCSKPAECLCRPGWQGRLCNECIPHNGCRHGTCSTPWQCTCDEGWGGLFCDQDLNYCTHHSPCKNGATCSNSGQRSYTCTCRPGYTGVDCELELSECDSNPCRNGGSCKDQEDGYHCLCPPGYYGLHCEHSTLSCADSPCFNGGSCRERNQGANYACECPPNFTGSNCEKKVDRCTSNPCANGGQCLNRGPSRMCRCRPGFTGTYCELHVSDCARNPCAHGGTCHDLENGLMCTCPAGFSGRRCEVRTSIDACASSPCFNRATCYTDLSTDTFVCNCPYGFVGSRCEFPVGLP

B1: ch33F11 (antibody, human IgG1, kappa, V domains shown)
VH: EVQLQQSGPELVKPGASVKISCKTSGYTFTENTMHWVKQSHGESLEWIGGINPRNGVTSYNQKFKGKATLTVDKSSSTAYMELRSLTSEDSAVYYCTNTYYRDYFDYWGQGTTLTVSS
VL: NIVMTQSPKSMSMSVGERVTLSCKASENVGTYVSWYQQKPDQSPKLLIYGASNRYTGVPDRFTGSGSPTDFTLTISRMQAEDLAHYYCGQTYTYPLTFGAGTKLELKR
notes: Chimeric: murine variable regions on human IgG1 heavy and kappa light constant regions; also called chimeric antibody 33F11
On to B1, for which the binding result in experiment [1] is reported as “no binding (tested: 20 µg/ml)”. Further, in experiment [2], the Kd was found to be 0.0521 nM, the koff stood at 6.31e-05 s⁻¹ and the on-rate (kon) came to 1.21e+06 M⁻¹ s⁻¹.

B2: ch1A5 (antibody, human IgG1, kappa, V domains shown)
VH: EVQLQQSGPELVKPGASVKISCKTSGYTFTESAMHWVKQSHGKSLEWIGGINPNNGGISYSQKFKGKATLTVDKSSSTAYMELRSLTSEDSAVYYCGSSYYRDYFDYWGQGTTLTVSS
VL: NIVMTQSPESMSMSVGERVTLSCKASENVGTYVSWYQQKPDQSPKLLIYGASNRYTGVPDRFTGSGSATHFTLTISSVQAEDLADYHCGQSYSYPLTFGAGTKLELKR
notes: Chimeric: murine variable regions on human IgG1 heavy and kappa light constant regions, expressed in 293F cells; also called chimeric antibody 1A5
Turning to B2, the binding result in experiment [1] is recorded as “no binding (tested: 20 µg/ml)”. In experiment [2], this molecule displayed a Kd of 0.0597 nM, a koff of 7.4e-05 s⁻¹ and a kon of 1.24e+06 M⁻¹ s⁻¹.

B3: ch23G2 (antibody, human IgG1, kappa, V domains shown)
VH: QVQLQQSGPELVRPGVSVKISCKGSGYTFTDYAIHWVKQSRAKSPEWIGIVSTDSGKTSFNQKFKGKATMTVDKSSTTAYMELVRLTSEDSAIYYCARNPYYDYDGYAMDYWGQGTSVTVSS
VL: DIQMTQSSSYLSVSLGGRVTIICKASDHINNWLAWYQQKPGNAPRLIISGATSLETGVPSRFSGSGSGKDYTLSITSLQTEDVATYYCQQYWSIPYTFGGGTKLEIKR
notes: Chimeric: murine variable regions on human IgG1 heavy and kappa light constant regions; also called chimeric antibody 23G2
On to B3, for which, in experiment [3], the binding result is “no binding (tested: up to 20 µg/ml)”. In experiment [2], the Kd is 0.0158 nM, the koff amounted to 2.79e-05 s⁻¹ and the association rate constant (kon) was determined as 1.76e+06 M⁻¹ s⁻¹.

B4: ch19C7 (antibody, human IgG1, kappa, V domains shown)
VH: EVQLQQSGPELVRPGASVRMSCKASGYTFTYYVMHWVKQKPGLGLEWIGYINPYNDGTEYNEKFKGKATLTSDKSSSTAFMELSSLTSEDSAVYYCARWLLREYAMDYWGQGTSVTVSS
VL: DIQMTQSPASLSASVGETVTITCRASDNIHNYLAWYQQKQGKSPQLLVYNAKTLADGVPSRFSGSGSGTQYSLKINSLQPEDFGSYYCQHFWSTPWTFGGGTKLEIKR
notes: Chimeric: murine variable regions on human IgG1 heavy and kappa light constant regions; also called chimeric antibody 19C7
In the case of B4, the binding result in experiment [1] is given as “no binding (tested: 20 µg/ml)”. In experiment [2], binding was characterised by a dissociation constant (Kd) of 0.739 nM, the koff amounted to 0.000962 s⁻¹ and the on-rate (kon) worked out at 1.3e+06 M⁻¹ s⁻¹.

B5: ch26D9 (antibody, human IgG1, kappa, V domains shown)
VH: EVQLQQSGPELVKPGASVKMSCKASGYTFTTYVMHWVKQKPGQGLEWIGYINPYNDDTNYNEKFKGKATLTSDKSSSTAYMELSSLTSEDSAVYYCARWGLTGTGDYYAMDYWGQGTSVTVSS
VL: DIQMTQSPASLSASVGETVTITCRASGNVHNYLAWYQQKQGRSPQVLVYNAKTLADGVPSRFSGSGSGTQYSLKINSLLPEDFGSYYCQHFWTTPWTFGGGTTLEIKR
notes: Chimeric: murine variable regions on human IgG1 heavy and kappa light constant regions; also called chimeric antibody 26D9
As for B5, in experiment [1], the binding result is reported as “no binding (tested: 20 µg/ml)”. In experiment [2], this molecule had a dissociation constant Kd of 0.0381 nM, a koff of 6.58e-05 s⁻¹ and a kon of 1.73e+06 M⁻¹ s⁻¹.

B6: ch10B1 (antibody, human IgG1, kappa, V domains shown)
VH: DVKLVESGGGLVKPGGSLKLSCAASGFTFSNYTISWVRQTPEKRLEWVATFSSGGSYTYYSDSVKGRFTISRDNAKNTLYLQMSSLKSEDTAMYYCSRDRRSDGYYHLYAMDYWGQGTSVTVSS
VL: DIQMTQTTSSLSASLGDRVTISCRASQDISHYLNWYQQKPDGTVKLLIYYTSRLHSGVPSRFSGSGSGTAYSLTISNLEQEDIATYFCQQGYTLPLTFGAGTKLELKR
notes: Chimeric: murine variable regions on human IgG1 heavy and kappa light constant regions; also called chimeric antibody 10B1
B6: the binding result in experiment [3] is “no binding (tested: up to 20 µg/ml)”. Besides, in experiment [2], binding was put at a Kd of 0.204 nM, the dissociation rate constant (koff) was determined as 0.000279 s⁻¹ and the on-rate (kon) was found to be 1.37e+06 M⁻¹ s⁻¹.

B7: ch15G2 (antibody, human IgG1, kappa, V domains shown)
VH: EVQLQQSGPELEKPGASVRISCKASGYSFTDYNMHWVKQSNGKSLEWIGNIDPYYGGTNYNQKFEGKATLTVDKSSSTAYMQLKSLTSEDSAVYYCARGGNNYGDYWGQGTTLTVSS
VL: DIQMTQSPASLAASVGETVTITCRASENIYYSLAWYQQKQGKSPQLLIFNANSLEDGVPSRFSGSGSGTQYSMKINSMQPEDTATYFCKQAYDVPWTFGGGTKLEIKR
notes: Chimeric: murine variable regions on human IgG1 heavy and kappa light constant regions; also called chimeric antibody 15G2
On to B7, for which the binding result in experiment [1] was “no binding (tested: 20 µg/ml)”. In experiment [2], this molecule showed a dissociation constant Kd of 0.0702 nM, a koff of 0.000121 s⁻¹ and an association rate constant (kon) of 1.72e+06 M⁻¹ s⁻¹.

B8: ch32E8 (antibody, human IgG1, kappa, V domains shown)
VH: QVTLKESGPGILQPSQTLSLTCSFSGFSLSTSGMGVGWIRQPSGKGLEWLALIWWDDVKRYHPALKSRLTISKDTSSSQVFLKIASVDTADTATYYCARIAEVTGQVGLHYAMDYWGQGTSVTVSS
VL: QTVLTQSPAIMSASLGERVTMTCTASSSVNSSSLHWYQQKPGSSPKLWIYTTSNLASGVPARFSGSGSGTSYSLTISSMEAEDAATYYCHQFHRSPFTFGSGTKLEIKR
notes: Chimeric: murine variable regions on human IgG1 heavy and kappa light constant regions; also called chimeric antibody 32E8
On to B8, for which the binding result in experiment [1] is “no binding (tested: 20 µg/ml)”. For the same molecule, in experiment [2], the Kd came to 0.09 nM, the dissociation rate constant (koff) amounted to 0.000134 s⁻¹ and the kon was 1.49e+06 M⁻¹ s⁻¹.

B9: ch6A2 (antibody, human IgG1, kappa, V domains shown)
VH: EVQLQQSGPELVKPGASVKISCKASGYTFTDYNMNWVKQSQGKSLEWIGYIYPYNGGTGYNQKFKTKATLTVDNSSSTAYMEFRSLTSEDSAVYYCARSDPYYTMDYWGQGTSVTVSS
VL: IIVMTQTPKFLLVSAGDRVTISCKASQSVNNDVAWYQQKPGQSPKLLIYFTSNRFTGVPDRFTGSGYGTDFTFTISSVQAEDLAVYFCQQDHNSPYTFGGGTKLEIKR
notes: Chimeric: murine variable regions on human IgG1 heavy and kappa light constant regions; also called chimeric antibody 6A2
In the case of B9, the binding result in experiment [1] is “binds”. For the same molecule, in experiment [2], the dissociation constant Kd was determined as 0.466 nM, the koff was 0.000684 s⁻¹ and the kon was determined as 1.47e+06 M⁻¹ s⁻¹.

B10: ch13C2 (antibody, human IgG1, kappa, V domains shown)
VH: EVKLVESGGGLVKPGGSLKLSCAASGFAFSSYDMSWVRQTPEKRLEWVATISSGGSYTYYPDSVKGRFTISRDNGRNTLYLQMSSLRSEDTALYYCASPLLGLRFAYWGQGTLVTVSA
VL: QAVVTQESALTTSPGETVTLTCRSSTGAVTTINYANWVQEKPDHLFTGLIGGTNNRAPGVPARFSGSLIGDKAALTITGAQTEDEAIYFCALYYSNHWVFGGGTKLTVLR
notes: Chimeric: murine variable regions on human IgG1 heavy and kappa light constant regions; also called chimeric antibody 13C2
In the case of B10, the binding result in experiment [1] was “no binding (tested: 20 µg/ml)”. In experiment [2], this molecule showed a Kd of 5.37 nM, an off-rate (koff) of 0.0012 s⁻¹ and an on-rate (kon) of 223000 M⁻¹ s⁻¹.
